Data as given in US20210032299A1 (Eli Lilly, published 2021).
Starred links: 1 amine or outer side, 2 acyl side, 3 side chain; linkers in the order of their positions; H or OH if unused. Non-standard residues stand in square brackets, D forms with d. Groups on a side chain read outwards from the residue. No end group written: not given here. *: point of attachment. C20 diacid = O=C(O)CCCCCCCCCCCCCCCCCCC(=O)*; γGlu = O=C(O)[C@H](CCC(=O)[*:2])N[*:1]; αMeY = C[C@](N)(Cc1ccc(O)cc1)C(=O)O; 4Pal = N[C@@H](Cc1ccncc1)C(=O)O; αMeL = CC(C)C[C@](C)(N)C(=O)O; AEEA = NCCOCCOCC(=O)O; Aib = CC(C)(N)C(=O)O

T1: human glucose-dependent insulinotropic peptide receptor (human, UniProt P48546 22-466)
T1 sequence (looked up): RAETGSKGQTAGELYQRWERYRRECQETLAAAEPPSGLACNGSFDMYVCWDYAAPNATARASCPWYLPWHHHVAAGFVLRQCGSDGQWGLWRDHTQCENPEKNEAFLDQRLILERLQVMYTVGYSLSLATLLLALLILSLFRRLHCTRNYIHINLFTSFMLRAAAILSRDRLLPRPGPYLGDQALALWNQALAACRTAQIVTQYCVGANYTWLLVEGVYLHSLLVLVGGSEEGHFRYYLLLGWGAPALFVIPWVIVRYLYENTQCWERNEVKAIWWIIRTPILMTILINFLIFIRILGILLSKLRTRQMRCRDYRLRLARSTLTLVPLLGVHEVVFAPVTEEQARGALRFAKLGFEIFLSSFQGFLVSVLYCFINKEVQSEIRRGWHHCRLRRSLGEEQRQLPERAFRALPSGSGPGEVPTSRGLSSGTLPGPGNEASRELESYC

B1: Example 88 (peptide)
peptide: YXEGTXISDYSIXLDKKHQXDFVEXLLEAGPSSGAPPPS
modifications: Aib2; Iva6; αMeL13; K17((2-[2-(2-Amino-ethoxy)-ethoxy]-acetyl)2-(γ-Glu)-CO-(CH2)18-CO2H); Aib20; 4-Pal25; C-terminal amide
B2: Example 90 (peptide)
peptide: Y[Aib]EGTFISDYSI[αMeL]LDKK([AEEA-AEEA-γGlu-C20 diacid])HQ[Aib]DFVE[αMeY]LLEAGPSSGAPPPS-NH2
modifications: N-terminus assumed
SMILES: CC[C@H](C)[C@H](NC(=O)[C@H](Cc1ccccc1)NC(=O)[C@@H](NC(=O)CNC(=O)[C@H](CCC(=O)O)NC(=O)C(C)(C)NC(=O)[C@@H](N)Cc1ccc(O)cc1)[C@@H](C)O)C(=O)N[C@@H](CO)C(=O)N[C@@H](CC(=O)O)C(=O)N[C@@H](Cc1ccc(O)cc1)C(=O)N[C@@H](CO)C(=O)N[C@H](C(=O)N[C@@](C)(CC(C)C)C(=O)N[C@@H](CC(C)C)C(=O)N[C@@H](CC(=O)O)C(=O)N[C@@H](CCCCN)C(=O)N[C@@H](CCCCNC(=O)COCCOCCNC(=O)COCCOCCNC(=O)CC[C@H](NC(=O)CCCCCCCCCCCCCCCCCCC(=O)O)C(=O)O)C(=O)N[C@@H](Cc1c[nH]cn1)C(=O)N[C@@H](CCC(N)=O)C(=O)NC(C)(C)C(=O)N[C@@H](CC(=O)O)C(=O)N[C@@H](Cc1ccccc1)C(=O)N[C@H](C(=O)N[C@@H](CCC(=O)O)C(=O)N[C@@](C)(Cc1ccc(O)cc1)C(=O)N[C@@H](CC(C)C)C(=O)N[C@@H](CC(C)C)C(=O)N[C@@H](CCC(=O)O)C(=O)N[C@@H](C)C(=O)NCC(=O)N1CCC[C@H]1C(=O)N[C@@H](CO)C(=O)N[C@@H](CO)C(=O)NCC(=O)N[C@@H](C)C(=O)N1CCC[C@H]1C(=O)N1CCC[C@H]1C(=O)N1CCC[C@H]1C(=O)N[C@@H](CO)C(N)=O)C(C)C)[C@@H](C)CC
B3: Example 86 (peptide)
peptide: Y[Aib]EGTFISDYSI[αMeL]LDEK([AEEA-AEEA-γGlu-C20 diacid])HQ[Aib]DFVE[4Pal]LLAGGPSSGAPPPS-NH2
modifications: N-terminus assumed
SMILES: CC[C@H](C)[C@H](NC(=O)[C@H](Cc1ccccc1)NC(=O)[C@@H](NC(=O)CNC(=O)[C@H](CCC(=O)O)NC(=O)C(C)(C)NC(=O)[C@@H](N)Cc1ccc(O)cc1)[C@@H](C)O)C(=O)N[C@@H](CO)C(=O)N[C@@H](CC(=O)O)C(=O)N[C@@H](Cc1ccc(O)cc1)C(=O)N[C@@H](CO)C(=O)N[C@H](C(=O)N[C@@](C)(CC(C)C)C(=O)N[C@@H](CC(C)C)C(=O)N[C@@H](CC(=O)O)C(=O)N[C@@H](CCC(=O)O)C(=O)N[C@@H](CCCCNC(=O)COCCOCCNC(=O)COCCOCCNC(=O)CC[C@H](NC(=O)CCCCCCCCCCCCCCCCCCC(=O)O)C(=O)O)C(=O)N[C@@H](Cc1c[nH]cn1)C(=O)N[C@@H](CCC(N)=O)C(=O)NC(C)(C)C(=O)N[C@@H](CC(=O)O)C(=O)N[C@@H](Cc1ccccc1)C(=O)N[C@H](C(=O)N[C@@H](CCC(=O)O)C(=O)N[C@@H](Cc1ccncc1)C(=O)N[C@@H](CC(C)C)C(=O)N[C@@H](CC(C)C)C(=O)N[C@@H](C)C(=O)NCC(=O)NCC(=O)N1CCC[C@H]1C(=O)N[C@@H](CO)C(=O)N[C@@H](CO)C(=O)NCC(=O)N[C@@H](C)C(=O)N1CCC[C@H]1C(=O)N1CCC[C@H]1C(=O)N1CCC[C@H]1C(=O)N[C@@H](CO)C(N)=O)C(C)C)[C@@H](C)CC
B4: Example 89 (peptide)
peptide: Y[Aib]EGTLISDYSI[αMeL]LDKK([AEEA-AEEA-γGlu-C20 diacid])HQ[Aib]DFVE[4Pal]LLEAGPSSGAPPPS-NH2
modifications: N-terminus assumed
SMILES: CC[C@H](C)[C@H](NC(=O)[C@H](CC(C)C)NC(=O)[C@@H](NC(=O)CNC(=O)[C@H](CCC(=O)O)NC(=O)C(C)(C)NC(=O)[C@@H](N)Cc1ccc(O)cc1)[C@@H](C)O)C(=O)N[C@@H](CO)C(=O)N[C@@H](CC(=O)O)C(=O)N[C@@H](Cc1ccc(O)cc1)C(=O)N[C@@H](CO)C(=O)N[C@H](C(=O)N[C@@](C)(CC(C)C)C(=O)N[C@@H](CC(C)C)C(=O)N[C@@H](CC(=O)O)C(=O)N[C@@H](CCCCN)C(=O)N[C@@H](CCCCNC(=O)COCCOCCNC(=O)COCCOCCNC(=O)CC[C@H](NC(=O)CCCCCCCCCCCCCCCCCCC(=O)O)C(=O)O)C(=O)N[C@@H](Cc1c[nH]cn1)C(=O)N[C@@H](CCC(N)=O)C(=O)NC(C)(C)C(=O)N[C@@H](CC(=O)O)C(=O)N[C@@H](Cc1ccccc1)C(=O)N[C@H](C(=O)N[C@@H](CCC(=O)O)C(=O)N[C@@H](Cc1ccncc1)C(=O)N[C@@H](CC(C)C)C(=O)N[C@@H](CC(C)C)C(=O)N[C@@H](CCC(=O)O)C(=O)N[C@@H](C)C(=O)NCC(=O)N1CCC[C@H]1C(=O)N[C@@H](CO)C(=O)N[C@@H](CO)C(=O)NCC(=O)N[C@@H](C)C(=O)N1CCC[C@H]1C(=O)N1CCC[C@H]1C(=O)N1CCC[C@H]1C(=O)N[C@@H](CO)C(N)=O)C(C)C)[C@@H](C)CC
B5: Example 85 (peptide)
peptide: Y[Aib]EGTFISDYSI[αMeL]LDEK([AEEA-AEEA-γGlu-C20 diacid])HQ[Aib]DFVE[4Pal]LLAAGPSSGAPPPS-NH2
modifications: N-terminus assumed
SMILES: CC[C@H](C)[C@H](NC(=O)[C@H](Cc1ccccc1)NC(=O)[C@@H](NC(=O)CNC(=O)[C@H](CCC(=O)O)NC(=O)C(C)(C)NC(=O)[C@@H](N)Cc1ccc(O)cc1)[C@@H](C)O)C(=O)N[C@@H](CO)C(=O)N[C@@H](CC(=O)O)C(=O)N[C@@H](Cc1ccc(O)cc1)C(=O)N[C@@H](CO)C(=O)N[C@H](C(=O)N[C@@](C)(CC(C)C)C(=O)N[C@@H](CC(C)C)C(=O)N[C@@H](CC(=O)O)C(=O)N[C@@H](CCC(=O)O)C(=O)N[C@@H](CCCCNC(=O)COCCOCCNC(=O)COCCOCCNC(=O)CC[C@H](NC(=O)CCCCCCCCCCCCCCCCCCC(=O)O)C(=O)O)C(=O)N[C@@H](Cc1c[nH]cn1)C(=O)N[C@@H](CCC(N)=O)C(=O)NC(C)(C)C(=O)N[C@@H](CC(=O)O)C(=O)N[C@@H](Cc1ccccc1)C(=O)N[C@H](C(=O)N[C@@H](CCC(=O)O)C(=O)N[C@@H](Cc1ccncc1)C(=O)N[C@@H](CC(C)C)C(=O)N[C@@H](CC(C)C)C(=O)N[C@@H](C)C(=O)N[C@@H](C)C(=O)NCC(=O)N1CCC[C@H]1C(=O)N[C@@H](CO)C(=O)N[C@@H](CO)C(=O)NCC(=O)N[C@@H](C)C(=O)N1CCC[C@H]1C(=O)N1CCC[C@H]1C(=O)N1CCC[C@H]1C(=O)N[C@@H](CO)C(N)=O)C(C)C)[C@@H](C)CC
B6: Example 84 (peptide)
peptide: Y[Aib]EGTFISDYSI[αMeL]LDEK([AEEA-AEEA-γGlu-C20 diacid])HQ[Aib]DFVE[4Pal]LLAQGPSSGAPPPS-NH2
modifications: N-terminus assumed
SMILES: CC[C@H](C)[C@H](NC(=O)[C@H](Cc1ccccc1)NC(=O)[C@@H](NC(=O)CNC(=O)[C@H](CCC(=O)O)NC(=O)C(C)(C)NC(=O)[C@@H](N)Cc1ccc(O)cc1)[C@@H](C)O)C(=O)N[C@@H](CO)C(=O)N[C@@H](CC(=O)O)C(=O)N[C@@H](Cc1ccc(O)cc1)C(=O)N[C@@H](CO)C(=O)N[C@H](C(=O)N[C@@](C)(CC(C)C)C(=O)N[C@@H](CC(C)C)C(=O)N[C@@H](CC(=O)O)C(=O)N[C@@H](CCC(=O)O)C(=O)N[C@@H](CCCCNC(=O)COCCOCCNC(=O)COCCOCCNC(=O)CC[C@H](NC(=O)CCCCCCCCCCCCCCCCCCC(=O)O)C(=O)O)C(=O)N[C@@H](Cc1c[nH]cn1)C(=O)N[C@@H](CCC(N)=O)C(=O)NC(C)(C)C(=O)N[C@@H](CC(=O)O)C(=O)N[C@@H](Cc1ccccc1)C(=O)N[C@H](C(=O)N[C@@H](CCC(=O)O)C(=O)N[C@@H](Cc1ccncc1)C(=O)N[C@@H](CC(C)C)C(=O)N[C@@H](CC(C)C)C(=O)N[C@@H](C)C(=O)N[C@@H](CCC(N)=O)C(=O)NCC(=O)N1CCC[C@H]1C(=O)N[C@@H](CO)C(=O)N[C@@H](CO)C(=O)NCC(=O)N[C@@H](C)C(=O)N1CCC[C@H]1C(=O)N1CCC[C@H]1C(=O)N1CCC[C@H]1C(=O)N[C@@H](CO)C(N)=O)C(C)C)[C@@H](C)CC

Biological target: T1, human glucose-dependent insulinotropic …
Assay: cell-based or functional assay

| Binder | hGIPR cAMP Rel EC50 |
| --- | --- |
| B1 | 0.0031 nM |
| B2 | 0.0272 nM |
| B3 | 0.03 nM |
| B4 | 0.00687 nM |
| B5 | 0.0359 nM |
| B6 | 0.034 nM |

Biological target: human glucagon receptor (human, UniProt P47871 26-477)
Assay: cell-based or functional assay

Sequence of human glucagon receptor (P47871 26-477): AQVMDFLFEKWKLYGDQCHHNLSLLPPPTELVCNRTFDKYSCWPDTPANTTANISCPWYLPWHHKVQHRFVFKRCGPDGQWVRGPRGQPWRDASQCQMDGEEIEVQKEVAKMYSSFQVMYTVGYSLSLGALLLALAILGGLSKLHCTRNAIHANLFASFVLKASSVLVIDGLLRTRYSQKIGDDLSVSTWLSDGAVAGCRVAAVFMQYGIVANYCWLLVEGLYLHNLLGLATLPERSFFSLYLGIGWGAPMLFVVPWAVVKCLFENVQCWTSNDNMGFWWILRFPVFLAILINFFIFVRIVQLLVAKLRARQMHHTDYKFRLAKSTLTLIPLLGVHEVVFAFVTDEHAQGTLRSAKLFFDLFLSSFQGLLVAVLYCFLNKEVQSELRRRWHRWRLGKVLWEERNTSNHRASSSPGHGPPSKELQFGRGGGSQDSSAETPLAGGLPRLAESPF

| Binder | hGcgR cAMP Rel EC50 |
| --- | --- |
| B1 | 1670 nM |
| B2 | > 5000 nM |
| B3 | > 5000 nM |
| B4 | > 5000 nM |
| B5 | > 5000 nM |
| B6 | > 5000 nM |

Biological target: human GLP-1 receptor (human, UniProt P43220 24-463)
Assay: cell-based or functional assay

| Binder | hGLP1R cAMP Rel EC50 |
| --- | --- |
| B1 | > 5000 nM |
| B2 | > 5000 nM |
| B3 | > 5000 nM |
| B4 | > 5000 nM |
| B5 | > 5000 nM |
| B6 | > 5000 nM |
